The results in this text go back to the supplement of paper PMC6755084.

First the molecules themselves.
B1: F1*; the commonest letter at each place (parent)
chain: GAGACCGCAACTGAAAAGTTGTTATCACTTGTCGTAAGACACTTTGGATGGGTTGAAGTTCTGCACGTAGAAGCAAAAGGC

The data set covers variants of B1. The data set can be described thus: fraction ligated after 30 min (ligated reads / total reads); higher = more ligase activity. The conditions noted are these: with F1*sub RNA substrate (template-directed ligation), 42 °C. Here is the method:
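Chip-synthesised pool of F1* ligase ribozyme variants (all single and double substitutions, single, double and triple deletions in the catalytic core and GAA bulge, plus designed variants) was transcribed with T7 and reacted as a pool with excess substrate F1*sub for 30 min at 42 C in 50 mM EPPS pH 8.5, 25 mM MgCl2. Ligated and unligated bands were separated by PAGE, barcoded by RT and deep sequenced; fraction ligated = ligated reads / total reads per variant, relative activity = FL / FL of wild type (0.826). Sequences are the DNA template of the ribozyme.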
Take GAGACCGCAACTGAAAAGTTGTTATCACTTGTCGTTAGACACTTTGGATGGGTTGAAGTTCTGCACGTAGAAGCAAAAGGC [A36T]: the fraction ligated came out at 0.843.
GAGACCGCAACTGAAAAGTTGTTATCACGTGTGGTAAGACACTTTGGATGGGTTGAAGTTCTGCACGTAGAAGCAAAAGGC [T29G C33G]: the fraction ligated turned out to be 0.865.
The same measure for GAGACCGCAACTGAAAAGTTGTTATCACTAGTCGTAAGACACTTTGGATGGGTTGATGTTCTGCACGTAGAAGCAAAAGGC [T30A A57T]: 0.8.
For GAGACCGCAACTGAAAAGTTGTTATCCCTTGTCATAAGACACTTTGGATGGGTTGAAGTTCTGCACGTAGAAGCAAAAGGC [A27C G34A] the value was 0.809; for GAGACCGCAACTGAAAAGTTGTTATCACTTGTCGTATGACACTTCGGATGGGTTGAAGTTCTGCACGTAGAAGCAAAAGGC [A37T T45C], 0.768; for GAGACCGCAACTGAAAAGTTGTTATCAGTTGTCGTAAGACACTTAGGATGGGTTGAAGTTCTGCACGTAGAAGCAAAAGGC [C28G T45A], 0.558.
Consider GAGACCGCAACTGAAAAGTTGTTATCACTTGGCGTAAGACACTTTGGTTGGGTTGAAGTTCTGCACGTAGAAGCAAAAGGC [T32G A48T], for which the fraction ligated is 0.143.
As to GAGACCGCAACTGAAAAGTTGTTATCGCTTGTCGTTAGACACTTTGGATGGGTTGAAGTTCTGCACGTAGAAGCAAAAGGC [A27G A36T], the fraction ligated was determined as 0.826.
For GAGACCGCAACTGAAAAGTTGTTATCACTTGTGGTAAGACACTTTGGAGGGGTTGAAGTTCTGCACGTAGAAGCAAAAGGC [C33G T49G] the value was 0.706.
For GAGACCGCAACTGAAAAGTTGTTAACACTTCTCGTAAGACACTTTGGATGGGTTGAAGTTCTGCACGTAGAAGCAAAAGGC [T25A G31C] the value was 0.034; for GAGACCGCAACTGAAAAGTTGTTATCACTTGTCGTGAGACAGTTTGGATGGGTTGAAGTTCTGCACGTAGAAGCAAAAGGC [A36G C42G], 0.844; for GAGACCGCAACTGAAAAGTTGTTATCACTTGTCGTAAGACACTTTCTATGGGTTGAAGTTCTGCACGTAGAAGCAAAAGGC [G46C G47T], 0.0897.
Turning to GAGACCGCAACTGAAAAGTTGTTATCACTTGTCGTCAGACACTATGGATGGGTTGAAGTTCTGCACGTAGAAGCAAAAGGC [A36C T44A], the fraction ligated was 0.827.
For GAGACCGCAACTGAAAAGTTGTTATCACTTGCCGGAAGACACTTTGGATGGGTTGAAGTTCTGCACGTAGAAGCAAAAGGC [T32C T35G] the value was 0.808; for GAGACCGCAACTGAAAAGTTGTTATCCCTTGTCGTAAGACACTTTGGGTGGGTTGAAGTTCTGCACGTAGAAGCAAAAGGC [A27C A48G], 0.256; for GAGACCGCAACTGAAAAGTTGTTCTCACTTGTCGTAAGACACTCTGGATGGGTTGAAGTTCTGCACGTAGAAGCAAAAGGC [A24C T44C], 0.563.
As for GAGACCGCAACTGAAAAGTTGTTATCACTTGACGTAAGACACTTTGGATAGGTTGAAGTTCTGCACGTAGAAGCAAAAGGC [T32A G50A], the fraction ligated is 0.232.
On to GAGACCGCAACTGAAAAGTTGTTATCACTTGTCGTAATTCACTTTGGATGGGTTGAAGTTCTGCACGTAGAAGCAAAAGGC [G38T A39T], for which the fraction ligated came out at 0.817.
Regarding GAGACCGCAACTGAAAAGTTGTCATCACTTGTCGTGAGACACTTTGGATGGGTTGAAGTTCTGCACGTAGAAGCAAAAGGC [T23C A36G], the fraction ligated came to 0.817.
Take GAGACCGCAACTGAAAAGTTGTTATCACTTGTTGTGAGACACTTTGGATGGGTTGAAGTTCTGCACGTAGAAGCAAAAGGC [C33T A36G]: the fraction ligated is 0.854.
As to GAGACCGCAACTGAAAAGTTGTTATCACTTTTCGTAAGACACTTTGGATGGGTTGATGTTCTGCACGTAGAAGCAAAAGGC [G31T A57T], the fraction ligated was found to be 0.78.
Take GAGACCGCAACTGAAAAGTTGTTATCACTTCTCGTAAGACACTTTCGATGGGTTGAAGTTCTGCACGTAGAAGCAAAAGGC [G31C G46C]: the fraction ligated stood at 0.732.
For GAGACCGCAACTGAAAAGTTGTTATCTCTTGTCGTAAGACACTTTGGATCGGTTGAAGTTCTGCACGTAGAAGCAAAAGGC [A27T G50C] the value was 0.238; for GAGACCGCAACTGAAAAGTTGTTATCACGTGTCGCAAGACACTTTGGATGGGTTGAAGTTCTGCACGTAGAAGCAAAAGGC [T29G T35C], 0.803; for GAGACCGCAACTGAAAAGTTGTTAGCACTGGTCGTAAGACACTTTGGATGGGTTGAAGTTCTGCACGTAGAAGCAAAAGGC [T25G T30G], 0.776.
For GAGACCGCAACTGAAAAGTTGTTATCGCGTGTCGTAAGACACTTTGGATGGGTTGAAGTTCTGCACGTAGAAGCAAAAGGC [A27G T29G] the value was 0.806.
Turning to GAGACCGCAACTGAAAAGTTGTTATCACTTGTCGTAAGACACTTGTGATGGGTTGAAGTTCTGCACGTAGAAGCAAAAGGC [T45G G46T], the fraction ligated turned out to be 0.246.
For the variant GAGACCGCAACTGAAAAGTTGTTATCACTTGTCGGAAGACACATTGGATGGGTTGAAGTTCTGCACGTAGAAGCAAAAGGC [T35G T43A], the fraction ligated was found to be 0.819.
The same measure for GAGACCGCAACTGAAAAGTTGTTATCACTTTTCGTAAGACACTTTGGATGGGTTAAAGTTCTGCACGTAGAAGCAAAAGGC [G31T G55A]: 0.813.
Consider GAGACCGCAACTGAAAAGTTGTTATTACTTGTCGTTAGACACTTTGGATGGGTTGAAGTTCTGCACGTAGAAGCAAAAGGC [C26T A36T], for which the fraction ligated came out at 0.827.
On to GAGACCGCAACTGAAAAGTTGTTATCACTTGTCGTAAGACACTTTAGGTGGGTTGAAGTTCTGCACGTAGAAGCAAAAGGC [G46A A48G], for which the fraction ligated came to 0.609.
Consider GAGACCGCAACTGAAAAGTTGTTATTACTTGTCGTAAGACACTTTGGATGGGTTCAAGTTCTGCACGTAGAAGCAAAAGGC [C26T G55C], for which the fraction ligated stood at 0.3.
Regarding GAGACCGCAACTGAAAAGTTGTTATCACGTCTCGTAAGACACTTTGGATGGGTTGAAGTTCTGCACGTAGAAGCAAAAGGC [T29G G31C], the fraction ligated was 0.804.
The same measure for GAGACCGCAACTGAAAAGTTGTTATCAATTGTCGTAAGACACTTTGGATGGGTTGATGTTCTGCACGTAGAAGCAAAAGGC [C28A A57T]: 0.789.
